Target: T1, SREBF2 (human, UniProt Q12772 1-1141, limits assumed)
T1 sequence (looked up): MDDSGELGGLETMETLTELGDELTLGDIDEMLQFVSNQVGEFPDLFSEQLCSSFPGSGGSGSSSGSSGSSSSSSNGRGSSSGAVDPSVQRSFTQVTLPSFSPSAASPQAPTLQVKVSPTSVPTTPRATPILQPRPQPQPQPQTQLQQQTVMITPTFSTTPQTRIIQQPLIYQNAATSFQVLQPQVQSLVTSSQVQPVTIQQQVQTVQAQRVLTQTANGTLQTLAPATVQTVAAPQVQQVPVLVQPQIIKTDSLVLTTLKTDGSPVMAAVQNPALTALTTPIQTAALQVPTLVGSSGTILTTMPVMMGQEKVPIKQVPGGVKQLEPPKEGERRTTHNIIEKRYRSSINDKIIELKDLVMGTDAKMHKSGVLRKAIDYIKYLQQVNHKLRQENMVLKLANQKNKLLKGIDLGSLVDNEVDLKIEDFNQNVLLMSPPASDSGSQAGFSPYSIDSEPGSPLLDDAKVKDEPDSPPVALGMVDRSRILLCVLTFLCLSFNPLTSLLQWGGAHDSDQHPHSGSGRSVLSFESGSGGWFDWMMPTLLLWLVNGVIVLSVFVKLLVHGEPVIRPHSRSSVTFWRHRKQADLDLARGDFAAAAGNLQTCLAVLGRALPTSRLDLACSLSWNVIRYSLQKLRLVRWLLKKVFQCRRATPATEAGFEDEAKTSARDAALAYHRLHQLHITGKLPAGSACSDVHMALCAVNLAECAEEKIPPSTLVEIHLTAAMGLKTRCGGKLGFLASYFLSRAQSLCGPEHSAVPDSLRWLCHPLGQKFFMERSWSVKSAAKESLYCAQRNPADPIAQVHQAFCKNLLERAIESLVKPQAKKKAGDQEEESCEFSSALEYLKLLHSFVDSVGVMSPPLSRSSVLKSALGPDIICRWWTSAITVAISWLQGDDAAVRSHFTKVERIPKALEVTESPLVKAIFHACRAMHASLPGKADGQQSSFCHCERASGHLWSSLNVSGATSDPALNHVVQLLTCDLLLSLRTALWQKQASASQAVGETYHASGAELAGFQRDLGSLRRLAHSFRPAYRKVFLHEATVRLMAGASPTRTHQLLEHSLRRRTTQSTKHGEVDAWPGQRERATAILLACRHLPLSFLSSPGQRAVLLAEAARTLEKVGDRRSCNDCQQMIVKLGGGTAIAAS
Experiment: IP/MS, LZTR1 wild type-FLAG, U87
Method in brief: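 Read-out: spectral counts from LC-MS/MS (Orbitrap Fusion) after MaxQuant identification. Variable modifications were Met oxidation, protein N-terminal acetylation and N/Q deamidation.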

B1: LZTR1-FLAG (other, human, UniProt Q8N653 1-840, looked up)
chain: MAGPGSTGGQIGAAALAGGARSKVAPSVDFDHSCSDSVEYLTLNFGPFETVHRWRRLPPCDEFVGARRSKHTVVAYKDAIYVFGGDNGKTMLNDLLRFDVKDCSWCRAFTTGTPPAPRYHHSAVVYGSSMFVFGGYTGDIYSNSNLKNKNDLFEYKFATGQWTEWKIEGRLPVARSAHGATVYSDKLWIFAGYDGNARLNDMWTIGLQDRELTCWEEVAQSGEIPPSCCNFPVAVCRDKMFVFSGQSGAKITNNLFQFEFKDKTWTRIPTEHLLRGSPPPPQRRYGHTMVAFDRHLYVFGGAADNTLPNELHCYDVDFQTWEVVQPSSDSEVGGAEVPERACASEEVPTLTYEERVGFKKSRDVFGLDFGTTSAKQPTQPASELPSGRLFHAAAVISDAMYIFGGTVDNNIRSGEMYRFQFSCYPKCTLHEDYGRLWESRQFCDVEFVLGEKEECVQGHVAIVTARSRWLRRKITQARERLAQKLEQEAAPVPREAPGVAAGGARPPLLHVAIREAEARPFEVLMQFLYTDKIKYPRKGHVEDVLLIMDVYKLALSFQLCRLEQLCRQYIEASVDLQNVLVVCESAARLQLSQLKEHCLNFVVKESHFNQVIMMKEFERLSSPLIVEIVRRKQQPPPRTPLDQPVDIGTSLIQDMKAYLEGAGAEFCDITLLLDGHPRPAHKAILAARSSYFEAMFRSFMPEDGQVNISIGEMVPSRQAFESMLRYIYYGEVNMPPEDSLYLFAAPYYYGFYNNRLQAYCKQNLEMNVTVQNVLQILEAADKTQALDMKRHCLHIIVHQFTKVSKLPTLRSLSQQLLLDIIDSLASHISDKQCAELGADI
notes: Expressed in HEK 293T, HeLa or U87 cells; used as cell lysate; also called LZTR1 wild type-FLAG; LZTR1 WT; not shown: FLAG tag at the C-terminus
Q: Does B1 bind?
A: binds
